Experimental data as given in publication PMC3017832, “Molecular analysis of phosphomannomutase (PMM) genes reveals a unique PMM duplication event in diverse Triticeae species and the main PMM isozymes in bread wheat tissues” (BMC Plant Biology, 2010).

Legend:
Assay in all cases: spectrophotometric PMM assay (as in earlier work)
Format in all cases: biochemical, Triticum aestivum
Conditions in all cases: average of three experiments; temperature and pH not given
[1] = substrate: O=P(O)(O)O[C@H]1O[C@H](CO)[C@@H](O)[C@H](O)[C@@H]1O
From the text: spectrophotometric PMM assay (as in earlier work) on TaPMM-A1 | The average Km (mM, mannose-1-phosphate) values calculated for recombinant A1, D1 and D2 proteins

[2] = substrate: O=P(O)(O)O[C@H]1O[C@H](CO)[C@@H](O)[C@H](O)[C@@H]1O; remark: listed apart in the source
From the text: spectrophotometric PMM assay (as in earlier work) on TaPMM-D1 | The average Km (mM, mannose-1-phosphate) values calculated for recombinant A1, D1 and D2 proteins

[3] = substrate: O=P(O)(O)O[C@H]1O[C@H](CO)[C@@H](O)[C@H](O)[C@@H]1O; remark: listed apart in the source
From the text: spectrophotometric PMM assay (as in earlier work) on TaPMM-D2 | The average Km (mM, mannose-1-phosphate) values calculated for recombinant A1, D1 and D2 proteins

B1: TaPMM-A1 (Triticum aestivum) (protein)
chain: MAAARKDAGVLALFDVDGTLTAPRKEVTPEMLEFMKRLRENVTVGVVGGSDLVKISEQLGKSVITDYDYVFSENGLVAHKDGKLIGTQSLKTYLGDDQLKEFINFTLHYIADLDIPIKRGTFIEFRSGMINVSPIGRNCSQEERDDFEKYDKVHNVRPKMVSVLREKFAHLNLTFSIGGQISFDVFPQGWDKTYCLRYLEEFKEIHFFGDKTYKGGNDHEIFESDRTVGHTVTSPNDTVQQCKSIFLSE
Km [1]: 460 ± 20 µM

B2: TaPMM-D1 (Triticum aestivum) (protein)
chain: MAAAAAARKTAGVLALFDVDGTLTAPRKEVTPEMLEFMKRLRENVTVGVVGGSDLVKISEQLGKSVITDYDYVFSENGLVAHKDGKLIGTQSLKTYLGDDQLKEFINFTLHYIADLDIPIKRGTFIEFRSGMINVSPIGRNCSQEERDDFEKYDKVHNVRPKMVSVLREKFAHLNLTFSIGGQISFDVFPQGWDKTYCLRYLEEFKEIHFFGDKTYKGGNDHEIFESERTVGHTVTSPNDTVQQCKSIFLSE
Km [2]: 400 ± 20 µM

B3: TaPMM-D2 (Triticum aestivum) (protein)
chain: MVASAARKNAGVLALFDVDGTLTAPRKEVTPEMLEFMKRLRENVTVGVVGGSDLVKISEQLGKSVITDYDYVFSENGLVAHKDGKLIGTQSLKTYLGDDQLKEFINFTLHYIADLDIPIKRGTFIEFRSGMINVSPIGRNCSQEERDDFEKYDKVHNVRPKMVSMLREKFAHLNLTFSIGGQISFDVFPHGWDKTYCLRYLDEFKEIHFFGDKTYKGGNDHEIFESDRTVGHTVTSPDDTVQQCRSIFLSK
Km [3]: 480 ± 20 µM
